This note sets out measurements from patent publication US20230052369A1 (Zymeworks, published 2023).

To fix the notation:
B1: v23820 (antibody, human IgG1, kappa, V domains shown)
VH: QEQLVESGGGLVQPEGSLTLTCKASGFTISNNYYMCWVRQAPGKGLEWIACIYGGISGRTYYASWAKGRFTISKTSSTTVTLQMTSLTAADTATYFCVRGYVGTSNLWGPGTLVTVSS
VL: DIVMTQTPASVEAAVGGTVTIKCQASQSIYSSLAWYQQKPGQSPKLLIYDASHLASGVPSRFSGSRYGTEFTLTISGVQCDDAATYYCQGGWYSSAATYVPNTFGGGTEVVVKR
notes: FSA format; rabbit variable domains, human IgG1/kappa constant domains; also called 8K22 rabbit-human parental chimera
B2: v23800 (antibody, human IgG1, kappa)
heavy: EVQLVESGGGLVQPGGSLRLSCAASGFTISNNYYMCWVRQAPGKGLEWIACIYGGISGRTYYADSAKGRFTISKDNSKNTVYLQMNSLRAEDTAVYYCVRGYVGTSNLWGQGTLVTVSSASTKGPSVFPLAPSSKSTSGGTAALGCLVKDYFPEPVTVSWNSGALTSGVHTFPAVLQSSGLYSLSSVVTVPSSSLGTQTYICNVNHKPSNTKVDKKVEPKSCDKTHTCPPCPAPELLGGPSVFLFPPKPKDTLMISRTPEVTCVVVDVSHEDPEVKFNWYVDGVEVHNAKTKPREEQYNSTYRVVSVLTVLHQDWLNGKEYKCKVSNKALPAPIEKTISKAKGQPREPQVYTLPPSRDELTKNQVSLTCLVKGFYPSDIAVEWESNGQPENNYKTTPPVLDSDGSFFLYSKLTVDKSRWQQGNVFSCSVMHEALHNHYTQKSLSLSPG
light: DIQMTQSPSSLSASVGDRVTITCQASQSIYSSLAWYQQKPGKAPKLLIYDASHLASGVPSRFSGSGSGTDFTLTISSVQPEDFATYYCQGGWYSSAATYVPNTFGGGTKVEVKRTVAAPSVFIFPPSDEQLKSGTASVVCLLNNFYPREAKVQWKVDNALQSGNSQESVTEQDSKDSTYSLSSTLTLSKADYEKHKVYACEVTHQGLSSPVTKSFNRGEC
notes: also called humanized 8K22 H2L2
B3: v23802 (antibody, human IgG1, kappa)
heavy: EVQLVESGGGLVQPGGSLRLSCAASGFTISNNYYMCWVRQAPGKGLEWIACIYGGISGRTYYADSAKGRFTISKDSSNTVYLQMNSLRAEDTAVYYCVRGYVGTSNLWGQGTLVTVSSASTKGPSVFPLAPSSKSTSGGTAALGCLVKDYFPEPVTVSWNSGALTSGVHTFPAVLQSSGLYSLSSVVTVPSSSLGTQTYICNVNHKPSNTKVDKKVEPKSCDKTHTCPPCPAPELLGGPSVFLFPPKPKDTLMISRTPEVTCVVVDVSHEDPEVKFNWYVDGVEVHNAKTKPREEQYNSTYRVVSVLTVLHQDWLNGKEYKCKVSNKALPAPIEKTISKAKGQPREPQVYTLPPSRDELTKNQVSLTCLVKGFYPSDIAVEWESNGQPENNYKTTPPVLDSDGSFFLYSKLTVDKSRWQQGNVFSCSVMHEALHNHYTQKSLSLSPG
light: B2 light
notes: also called humanized 8K22 H4L2
B4: v23810 (antibody, human IgG1, kappa, V domains shown)
VH: EVQLVESGGGLVQPGGSLRLSCAASGFTISNNYYMCWVRQAPGKGLEWIACIYGGISGRTYYADSAKGRFTISKDNSKNTVYLQMNSLRAEDTAVYYCVRGYVGTSNLWGQGTLVTVSS
VL: DIQMTQSPSSLSASVGDRVTITCQASQSIYSSLAWYQQKPGKAPKLLIYDASHLASGVPSRFSGSGSGTDFTLTISSVQPEDAATYYCQGGWYSSAATYVPNTFGGGTKVEVKR
notes: also called humanized 8K22 H2L4
B5: v23806 (antibody, human IgG1, kappa, V domains shown)
VH: B4 VH with N76S
VL: B4 VL with G66R, S67Y, A83F
notes: also called humanized 8K22 H3L3
B6: v23805 (antibody, human IgG1, kappa, V domains shown)
VH: B4 VH
VL: B4 VL with G66R, S67Y, A83F
notes: also called humanized 8K22 H2L3
B7: v23818 (antibody, human IgG1, kappa, V domains shown)
VH: B4 VH with S65W, N76S
VL: B4 VL with G66R, S67Y
notes: also called humanized 8K22 H5L5
B8: v23811 (antibody, human IgG1, kappa, V domains shown)
VH: B4 VH with N76S
VL: B4 VL
notes: also called humanized 8K22 H3L4
B9: v23814 (antibody, human IgG1, kappa, V domains shown)
VH: B4 VH with I49V, A50S, A66V, V81L
VL: B4 VL with G66R, S67Y
notes: also called humanized 8K22 H1L5
B10: v23796 (antibody, human IgG1, kappa)
heavy: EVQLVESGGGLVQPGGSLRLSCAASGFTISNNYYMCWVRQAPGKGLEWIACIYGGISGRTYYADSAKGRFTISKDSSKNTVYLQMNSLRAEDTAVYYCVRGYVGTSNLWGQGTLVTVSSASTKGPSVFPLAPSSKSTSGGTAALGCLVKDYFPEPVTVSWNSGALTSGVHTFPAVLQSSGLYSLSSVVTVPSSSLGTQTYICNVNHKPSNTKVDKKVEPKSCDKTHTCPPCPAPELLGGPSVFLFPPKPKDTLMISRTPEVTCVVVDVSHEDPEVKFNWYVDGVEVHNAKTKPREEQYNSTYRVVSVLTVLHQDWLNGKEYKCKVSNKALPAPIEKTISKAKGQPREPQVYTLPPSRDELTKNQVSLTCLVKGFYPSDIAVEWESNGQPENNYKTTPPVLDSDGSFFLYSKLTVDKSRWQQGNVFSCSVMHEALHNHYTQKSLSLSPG
light: B2 light with V112I
notes: also called humanized 8K22 H3L1
B11: v23804 (antibody, human IgG1, kappa, V domains shown)
VH: B4 VH with I49V, A50S, A66V, V81L
VL: B4 VL with G66R, S67Y, A83F
notes: also called humanized 8K22 H1L3
B12: v23812 (antibody, human IgG1, kappa, V domains shown)
VH: EVQLVESGGGLVQPGGSLRLSCAASGFTISNNYYMCWVRQAPGKGLEWIACIYGGISGRTYYADSAKGRFTISKDSSNTVYLQMNSLRAEDTAVYYCVRGYVGTSNLWGQGTLVTVSS
VL: B4 VL
notes: also called humanized 8K22 H4L4
B13: v23794 (antibody, human IgG1, kappa)
heavy: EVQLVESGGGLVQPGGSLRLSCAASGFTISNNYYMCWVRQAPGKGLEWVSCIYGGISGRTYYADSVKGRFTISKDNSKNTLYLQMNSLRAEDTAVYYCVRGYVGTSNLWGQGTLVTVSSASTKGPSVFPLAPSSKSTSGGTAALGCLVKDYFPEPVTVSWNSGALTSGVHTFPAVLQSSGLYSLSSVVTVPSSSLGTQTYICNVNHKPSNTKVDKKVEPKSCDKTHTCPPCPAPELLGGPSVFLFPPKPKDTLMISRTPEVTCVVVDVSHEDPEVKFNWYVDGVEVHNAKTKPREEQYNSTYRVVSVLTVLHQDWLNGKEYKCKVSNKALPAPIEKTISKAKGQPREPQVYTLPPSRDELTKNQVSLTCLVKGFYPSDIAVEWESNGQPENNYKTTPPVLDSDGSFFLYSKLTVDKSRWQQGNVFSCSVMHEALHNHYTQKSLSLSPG
light: B2 light with V112I
notes: also called humanized 8K22 H1L1
B14: v23808 (antibody, human IgG1, kappa, V domains shown)
VH: B4 VH with S65W, N76S
VL: B4 VL with G66R, S67Y, A83F
notes: also called humanized 8K22 H5L3
B15: v23799 (antibody, human IgG1, kappa)
heavy: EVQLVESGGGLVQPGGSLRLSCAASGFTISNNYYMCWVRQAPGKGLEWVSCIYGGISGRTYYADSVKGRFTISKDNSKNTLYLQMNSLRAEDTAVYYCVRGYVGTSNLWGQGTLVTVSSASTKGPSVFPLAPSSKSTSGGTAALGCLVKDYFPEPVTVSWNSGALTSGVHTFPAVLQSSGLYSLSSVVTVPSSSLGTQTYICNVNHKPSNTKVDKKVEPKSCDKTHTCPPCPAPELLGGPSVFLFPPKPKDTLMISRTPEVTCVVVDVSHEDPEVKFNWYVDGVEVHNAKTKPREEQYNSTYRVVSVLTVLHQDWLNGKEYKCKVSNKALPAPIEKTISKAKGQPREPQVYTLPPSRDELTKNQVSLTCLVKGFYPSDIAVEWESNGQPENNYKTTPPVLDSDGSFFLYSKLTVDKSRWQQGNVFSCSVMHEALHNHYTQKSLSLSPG
light: B2 light
notes: also called humanized 8K22 H1L2
B16: v23816 (antibody, human IgG1, kappa, V domains shown)
VH: B4 VH with N76S
VL: B4 VL with G66R, S67Y
notes: also called humanized 8K22 H3L5
B17: v23797 (antibody, human IgG1, kappa)
heavy: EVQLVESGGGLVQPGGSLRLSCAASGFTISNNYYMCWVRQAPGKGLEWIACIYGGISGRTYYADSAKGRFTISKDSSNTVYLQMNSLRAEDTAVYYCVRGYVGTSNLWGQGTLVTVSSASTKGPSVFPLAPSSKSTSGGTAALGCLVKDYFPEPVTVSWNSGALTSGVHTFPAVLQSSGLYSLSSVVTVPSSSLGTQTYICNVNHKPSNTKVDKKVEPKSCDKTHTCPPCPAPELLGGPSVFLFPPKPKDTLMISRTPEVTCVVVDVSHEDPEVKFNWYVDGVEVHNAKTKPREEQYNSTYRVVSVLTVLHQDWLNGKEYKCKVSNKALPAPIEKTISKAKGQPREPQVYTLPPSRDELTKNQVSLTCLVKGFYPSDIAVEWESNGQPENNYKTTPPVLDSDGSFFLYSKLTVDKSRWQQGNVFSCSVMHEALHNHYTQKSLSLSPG
light: B2 light with V112I
notes: also called humanized 8K22 H4L1
B18: v23801 (antibody, human IgG1, kappa)
heavy: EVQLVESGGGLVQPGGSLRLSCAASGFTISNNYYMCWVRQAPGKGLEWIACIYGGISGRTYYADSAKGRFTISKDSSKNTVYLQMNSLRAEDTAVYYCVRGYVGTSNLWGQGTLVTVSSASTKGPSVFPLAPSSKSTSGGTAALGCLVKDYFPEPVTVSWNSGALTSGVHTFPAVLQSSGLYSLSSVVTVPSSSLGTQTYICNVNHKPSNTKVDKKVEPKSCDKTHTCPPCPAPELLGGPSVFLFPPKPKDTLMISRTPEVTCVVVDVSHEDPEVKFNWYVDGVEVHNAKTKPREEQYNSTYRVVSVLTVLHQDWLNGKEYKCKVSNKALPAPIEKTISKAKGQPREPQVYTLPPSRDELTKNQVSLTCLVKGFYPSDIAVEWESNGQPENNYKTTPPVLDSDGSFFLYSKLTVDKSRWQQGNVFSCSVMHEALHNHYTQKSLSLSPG
light: B2 light
notes: also called humanized 8K22 H3L2
B19: v23813 (antibody, human IgG1, kappa, V domains shown)
VH: B4 VH with S65W, N76S
VL: B4 VL
notes: also called humanized 8K22 H5L4
B20: v23809 (antibody, human IgG1, kappa, V domains shown)
VH: B4 VH with I49V, A50S, A66V, V81L
VL: B4 VL
notes: also called humanized 8K22 H1L4
B21: v23795 (antibody, human IgG1, kappa)
heavy: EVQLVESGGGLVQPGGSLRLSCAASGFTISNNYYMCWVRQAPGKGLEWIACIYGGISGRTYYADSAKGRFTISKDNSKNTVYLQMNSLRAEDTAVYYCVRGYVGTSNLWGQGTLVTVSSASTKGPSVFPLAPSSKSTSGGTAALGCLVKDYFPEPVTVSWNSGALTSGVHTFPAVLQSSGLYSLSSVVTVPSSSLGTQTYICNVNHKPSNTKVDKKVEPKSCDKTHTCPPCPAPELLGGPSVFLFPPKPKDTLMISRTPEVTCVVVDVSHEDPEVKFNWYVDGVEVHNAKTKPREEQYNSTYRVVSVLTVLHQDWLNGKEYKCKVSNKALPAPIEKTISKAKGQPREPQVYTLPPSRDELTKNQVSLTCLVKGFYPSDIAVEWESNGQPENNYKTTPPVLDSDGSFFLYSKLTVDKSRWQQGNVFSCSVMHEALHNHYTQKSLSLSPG
light: B2 light with V112I
notes: also called humanized 8K22 H2L1
B22: v23803 (antibody, human IgG1, kappa)
heavy: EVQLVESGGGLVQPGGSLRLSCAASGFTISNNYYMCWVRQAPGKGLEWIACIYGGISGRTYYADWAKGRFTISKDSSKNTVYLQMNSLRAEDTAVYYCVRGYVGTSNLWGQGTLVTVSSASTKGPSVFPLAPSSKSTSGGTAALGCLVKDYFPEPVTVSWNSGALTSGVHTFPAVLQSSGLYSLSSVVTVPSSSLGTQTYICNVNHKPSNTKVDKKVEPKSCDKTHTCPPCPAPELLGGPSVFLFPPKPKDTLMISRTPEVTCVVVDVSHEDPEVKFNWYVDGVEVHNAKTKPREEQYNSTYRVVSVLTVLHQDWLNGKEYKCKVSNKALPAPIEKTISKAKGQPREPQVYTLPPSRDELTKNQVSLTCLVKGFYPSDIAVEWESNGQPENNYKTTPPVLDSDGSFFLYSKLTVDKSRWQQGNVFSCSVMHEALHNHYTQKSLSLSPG
light: B2 light
notes: also called humanized 8K22 H5L2
B23: v23815 (antibody, human IgG1, kappa, V domains shown)
VH: B4 VH
VL: B4 VL with G66R, S67Y
notes: also called humanized 8K22 H2L5
B24: v23798 (antibody, human IgG1, kappa)
heavy: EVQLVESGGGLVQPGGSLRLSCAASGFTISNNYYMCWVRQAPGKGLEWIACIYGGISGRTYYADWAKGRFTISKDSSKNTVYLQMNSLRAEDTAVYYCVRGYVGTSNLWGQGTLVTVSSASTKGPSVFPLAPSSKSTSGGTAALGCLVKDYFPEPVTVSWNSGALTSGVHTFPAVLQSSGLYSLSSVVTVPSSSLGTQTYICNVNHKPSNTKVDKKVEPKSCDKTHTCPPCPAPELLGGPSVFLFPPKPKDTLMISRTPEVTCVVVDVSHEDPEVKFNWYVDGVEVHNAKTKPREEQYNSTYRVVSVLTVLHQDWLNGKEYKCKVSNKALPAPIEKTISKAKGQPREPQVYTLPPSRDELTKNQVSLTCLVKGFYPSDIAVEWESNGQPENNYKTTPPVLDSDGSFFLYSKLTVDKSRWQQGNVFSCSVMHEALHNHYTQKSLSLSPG
light: B2 light with V112I
notes: also called humanized 8K22 H5L1
B25: v23807 (antibody, human IgG1, kappa, V domains shown)
VH: B12 VH
VL: B4 VL with G66R, S67Y, A83F
notes: also called humanized 8K22 H4L3
B26: v28703 (antibody, human IgG1, kappa, L234A L235A, V domains shown)
VH: QVQLQESGPGLVKPSETLSITCTVSGFSLISYGVHWVRQPPGKGLEWLGVIWSGGSTDYNPSLKSRVTISKDTSKNQVSFKLSSLTAADTAIYYCARNPLTATVMDYWGQGTLVTVSS
VL: DIQMTQSPSSLSASVGDRVTITCRASQNVGTNVAWFQQKPGKAPKSLIYSASYRDSGVPSRFSGSGSGTDFTLTISSLQPEDFATYYCQQYNSYPLTFGGGTKVEIKR
notes: also called humanized 5G8 H3L1
B27: v28711 (antibody, human IgG1, kappa, L234A L235A, V domains shown)
VH: B26 VH with T73N
VL: B26 VL with F36Y, S46A
notes: also called humanized 5G8 H4L2
B28: v28706 (antibody, human IgG1, kappa, L234A L235A, V domains shown)
VH: B26 VH
VL: B26 VL with I21V, F36Y, S46A, L78V, F83L, V104L
notes: also called humanized 5G8 H3L4
B29: v28712 (antibody, human IgG1, kappa, L234A L235A, V domains shown)
VH: B26 VH with T73N
VL: B26 VL with I21V, F36Y, S46A, L78V, V104L
notes: also called humanized 5G8 H4L3
B30: v28707 (antibody, human IgG1, kappa, L234A L235A, V domains shown)
VH: B26 VH with T73N
VL: B26 VL
notes: also called humanized 5G8 H4L1
B31: v28713 (antibody, human IgG1, kappa, L234A L235A, V domains shown)
VH: B26 VH with T73N
VL: B26 VL with I21V, F36Y, S46A, L78V, F83L, V104L
notes: also called humanized 5G8 H4L4
B32: v28704 (antibody, human IgG1, kappa, L234A L235A, V domains shown)
VH: B26 VH
VL: B26 VL with F36Y, S46A
notes: also called humanized 5G8 H3L2

Changes are numbered by the printed parent chain.

T1 sequence (P15328 25-234 limits assumed): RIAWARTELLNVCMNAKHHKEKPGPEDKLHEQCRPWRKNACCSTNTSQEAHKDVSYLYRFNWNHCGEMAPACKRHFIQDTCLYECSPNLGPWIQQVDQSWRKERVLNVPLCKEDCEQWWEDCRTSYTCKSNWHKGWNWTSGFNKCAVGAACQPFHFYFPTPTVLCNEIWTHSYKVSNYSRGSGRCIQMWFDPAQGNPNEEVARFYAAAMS

One experiment addresses T1, recombinant His-tagged human FRα (human, UniProt P15328 25-234).
T1 construct: Bought protein; also called hFRα; FRα-HIS
As to the kind of experiment: BLI, supernatant, n=1. On the technique in general: In BLI a coated tip is dipped into the sample, and binding shifts an interference pattern.
Description: (§1) The assay buffer used was KB buffer (kinetics buffer, composed of PBS pH 7.4, 0.1% BSA, 0.02% Tween 20, 0.05% sodium azide) supplemented with 0.06% Tween 20. The experiment was conducted at 25° C. with a shake speed of 1000 rpm.
(§2) Data analysis was performed using the Data analysis software 9.0′ (ForteBio). The reference-subtracted binding curves were globally fitted to the 1:1 interaction model to generate the binding kinetic parameters kₒₙ, koff, and the dissociation constant KD.
In general, Kd refers to a measure of binding affinity in units of concentration. As for B1, the Kd was found to be 5.94 nM. As for B2, the Kd was 36.5 nM. Same read-out and setting: with B3 the figure was 17.9 nM; with B4, 35 nM. On the same count and under the same terms, for B5 the value was 11.5 nM; for B6, 16.2 nM. On the same count and under the same terms, for B7 the value was 17.4 nM; for B8, 22.5 nM; for B9, 10.1 nM.

In the case of B10, the Kd worked out at 22.2 nM. Still for that read-out and setting: with B11 the figure was 9.29 nM. On the same count and under the same terms, with B12 the figure was 19.5 nM; with B13, 15.1 nM. On the same count and under the same terms, for B14 the value was 19.3 nM. With B15, the Kd came out at 13.8 nM.

In the case of B16, the Kd came out at 10.4 nM. As for B17, the equilibrium dissociation constant (Kd) was 14.9 nM. On the same count and under the same terms, for B18 the value was 22.1 nM; for B19, 34.6 nM; for B20, 12.1 nM.

As for B21, the Kd came out at 35.7 nM. Still for that read-out and setting: for B22 the value was 31.7 nM; for B23, 16.7 nM; for B24, 11.9 nM. Regarding B25, the Kd is 10.9 nM.

In another experiment the target is T2, purified human monomeric 4-1BB (human, UniProt Q07011 24-186).
T2 construct: the assay used the 4-1BB part released by Factor Xa with the Fc removed; also called h4-1BB; human 4-1BB
T2 sequence (Q07011 other isoform, or with tags, fused parts or gaps limits assumed): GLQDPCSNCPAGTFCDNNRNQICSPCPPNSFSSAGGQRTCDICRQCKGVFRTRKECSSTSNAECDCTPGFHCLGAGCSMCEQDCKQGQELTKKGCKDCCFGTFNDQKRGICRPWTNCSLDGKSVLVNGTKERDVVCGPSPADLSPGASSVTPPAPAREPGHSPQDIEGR
Briefly: SPR, mean n=3.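 Note: antibodies captured on anti-human Fc chip, 4-1BB injected as five-point two-fold series from 40 nM by single-cycle kinetics at 25 °C, sensorgrams fitted to 1:1 Langmuir model.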 On the technique in general: SPR reads the build-up and loss of mass on a sensor chip optically.
Description: The anti-human Fc surface was prepared on a CMS Series S sensorchip by standard amine coupling methods as described by the manufacturer (GE Healthcare). Briefly, immediately after EDC/NHS activation, a 25 μg/mL solution of anti-human Fc in 10 mM NaOAc pH 4.5 was injected at a flow rate of 10 μL/min for 420 s until approximately 2000 resonance units (RUs) were immobilized on all four flow cells. The remaining active groups were quenched by a 420 s injection of 1M ethanolamine at 10 μL/min.
Antibodies for analysis were captured onto the anti-Fc surface by injecting 5 μg/mL solutions at a flow rate of 10 μL/min for 60 s. Using single-cycle kinetics, five concentrations of a two-fold dilution series of 4-1BB starting at 40 nM (for both supernatant and purified antibody runs) with a blank buffer control were sequentially injected at 40 μL/min for 180 s with a 600 s dissociation phase, resulting in a set of sensorgrams with a buffer blank reference. Experiments were performed at a constant temperature of 25° C. The anti-human Fc surfaces were regenerated to prepare for the next injection cycle by one pulse of 10 mM Glycine/HCl pH 1.5 for 120 s at 40 μL/min. Blank-subtracted sensorgrams were analyzed using Biacore™ T200 Evaluation Software v3.0. The blank-subtracted sensorgrams were then fit to the 1:1 Langmuir binding model.
Protein material post protein-A or SEC was assessed for binding to human 4-1BB.
Turning to B26, the Kd worked out at 811 nM.

On to B27, for which the affinity, expressed as Kd, was 227 nM. On the same count and under the same terms, for B28 the value was 159 nM; for B29, 229 nM; for B30, 732 nM. B31 came in with a Kd of 184 nM.

Turning to B32, binding was characterised by a dissociation constant (Kd) of 179 nM.

A further experiment deals with T3, human 4-1BB, full-length, expressed on cells (human, UniProt Q07011 24-255).
T3 construct: also called CD137; TNFRSF9
T3 sequence (Q07011 24-255): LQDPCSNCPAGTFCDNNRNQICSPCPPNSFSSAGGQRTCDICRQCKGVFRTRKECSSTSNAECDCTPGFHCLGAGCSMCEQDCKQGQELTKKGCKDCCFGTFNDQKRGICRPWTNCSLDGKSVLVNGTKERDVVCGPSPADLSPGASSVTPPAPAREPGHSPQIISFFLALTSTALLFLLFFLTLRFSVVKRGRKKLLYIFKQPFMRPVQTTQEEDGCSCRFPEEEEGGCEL
Briefly: flow cytometry, Jurkat-4-1BB.
Description: Jurkat T cells engineered to stably express human 4-1BB were used to measure binding of antibodies to human 4-1BB. Antibodies were diluted in 5 μl FB (PBS 2% FCS) 1:3 from stock in wells of a 96 V-well plate, and cells added on top. The cells were then left on ice for 30 minutes for the antibodies to bind. The cells were then washed twice in FB, and then incubated in 50 μl FB containing 2 μg/ml goat anti-human Alexa647 antibody (Jackson Immunoresearch). The cells were then left on ice for a further 20 minutes, washed twice in FB, resuspended in 100 μl FB and analysed on a BD Fortessa™ X20. The subsequent data files were analysed using FlowJo™ and Prism 7 (GraphPad) using a four-parameter non-linear regression.
The EC50 is the concentration that produces a half-maximal response. B26 came in with an EC50 of 3.58 nM. The same measure, in the same setting: with B27 the figure was 139 nM; with B28, 1.92 nM; with B29, 3.56 nM. Still for that read-out and setting: with B30 the figure was 51.6 nM.

With B31, a half-maximal response (EC50) required 2.34 nM. On the same count and under the same terms, for B32 the value was 3.46 nM.

The target of the next experiment is T1, recombinant His-tagged human FRα. Briefly: BLI, purified, average n=2.
Description: as §1, §2
As for B1, the Kd came out at 4.11 nM.

Consider B3, for which the Kd was determined as 8.53 nM. The same measure, in the same setting: for B5 the value was 7 nM. Same read-out and setting: with B6 the figure was 10.2 nM; with B7, 6.13 nM. The same measure, in the same setting: with B8 the figure was 8.83 nM; with B9, 6.31 nM. As to B10, the Kd was found to be 11.2 nM. Same read-out and setting: with B11 the figure was 4.66 nM; with B12, 8.74 nM; with B13, 7.36 nM. Same read-out and setting: with B14 the figure was 13.1 nM. The same measure, in the same setting: with B15 the figure was 4.8 nM. On to B16, for which the Kd was 10.6 nM. On the same count and under the same terms, with B17 the figure was 11.9 nM; with B18, 8.66 nM; with B20, 9.03 nM.

Turning to B23, the Kd came out at 16.5 nM. For B24, the Kd worked out at 6.85 nM. For the molecule B25, the Kd was 7.07 nM.
